Laboratory results published in publication PMC6851316, “The C-terminal dimerization domain of the respiratory mucin MUC5B functions in mucin stability and intracellular packaging before secretion” (The Journal of Biological Chemistry, 2019).

Legend:
[1] = target: MUC5B C-terminal construct consisting of D4-B-C-CK (CT5B) (human) (UniProt Q9HC84); assay: SEC-MALS; recombinant CT5B on Superose 6 10/300 GL, 0.2 M NaCl, pH 7.4; step: monomer to disulfide-linked dimer
[2] = target: MUC5B C-terminal construct consisting of D4-B-C-CK (CT5B) (human) (UniProt Q9HC84); assay: AUC; sedimentation velocity; CT5B with 5 mM CaCl2 overnight at 4 °C, 150 mM NaCl, 25 mM HEPES pH 7.4 or 25 mM MES pH 6 or pH 5; tests the step dimer to higher multimers
[3] = target: MUC5B C-terminal construct consisting of D4-B-C-CK (CT5B) (human) (UniProt Q9HC84); assay: SEC-MALS; CT5B incubated overnight at 4 °C in 5 mM CaCl2 or 5 mM EGTA, 150 mM NaCl, 25 mM HEPES pH 7.4 or 25 mM MES pH 6 or 5; Superose 6 10/300 GL at room temperature; tests the step dimer to higher multimers
[4] = target: T1, MUC5B C-terminal construct consisting of D4-B-C-CK (CT5B) (human, UniProt Q9HC84 4955-5762); assay: SPR; single cycle kinetics, pH 6; CT5B immobilised on CM5 chip, NT5B 0, 5, 10, 15, 20 and 40 nM, HBS with 5 mM CaCl2 and 0.05% Tween 20; 1:1 Langmuir model; conditions: both partners purified
T1 construct: MUC5B, human, UniProtKB Q9HC84, D4-B-C-CK domains, residues 4955-5762; Mainly a disulfide-linked dimer with a small proportion of monomer; The dimer was used for cryo-EM, SPR (amine-coupled to a CM5 chip) and the homotypic tests; also called C-terminal dimerization domain of MUC5B; dimeric CT5B
T1 sequence (looked up): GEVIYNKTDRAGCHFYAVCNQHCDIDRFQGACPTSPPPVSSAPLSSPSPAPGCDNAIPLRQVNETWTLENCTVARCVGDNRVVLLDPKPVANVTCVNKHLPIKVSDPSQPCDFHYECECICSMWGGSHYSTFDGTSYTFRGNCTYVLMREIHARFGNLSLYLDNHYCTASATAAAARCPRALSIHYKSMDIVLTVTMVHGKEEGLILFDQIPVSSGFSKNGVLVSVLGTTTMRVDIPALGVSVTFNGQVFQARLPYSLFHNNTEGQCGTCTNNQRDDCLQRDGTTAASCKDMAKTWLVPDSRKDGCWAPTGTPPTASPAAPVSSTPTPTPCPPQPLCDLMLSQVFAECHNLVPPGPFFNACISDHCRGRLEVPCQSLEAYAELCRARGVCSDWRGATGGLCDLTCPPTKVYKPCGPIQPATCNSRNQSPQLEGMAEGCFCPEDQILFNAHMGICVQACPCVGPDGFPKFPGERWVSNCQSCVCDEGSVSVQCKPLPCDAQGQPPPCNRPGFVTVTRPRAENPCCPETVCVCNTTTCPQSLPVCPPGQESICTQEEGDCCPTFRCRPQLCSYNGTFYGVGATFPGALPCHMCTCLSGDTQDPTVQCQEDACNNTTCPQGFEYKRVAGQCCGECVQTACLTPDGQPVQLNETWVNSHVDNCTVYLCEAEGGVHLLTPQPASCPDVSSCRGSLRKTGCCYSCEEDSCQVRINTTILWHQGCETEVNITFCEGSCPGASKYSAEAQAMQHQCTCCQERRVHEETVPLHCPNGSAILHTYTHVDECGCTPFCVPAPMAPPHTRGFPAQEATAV

[5] = target: T1, MUC5B C-terminal construct consisting …; assay: SPR; single cycle kinetics, pH 7.4; CT5B immobilised on CM5 chip, NT5B 0, 5, 10, 15, 20 and 40 nM, HBS with 5 mM CaCl2 and 0.05% Tween 20; 1:1 Langmuir model; conditions: both partners purified
[6] = target: T1, MUC5B C-terminal construct consisting …; assay: MST; pH 6; 2.5 nM RED-NHS labelled NT5B, CT5B serially diluted 1:1 (starting concentration 6 μM); 25 mM HEPES, 150 mM NaCl, 0.05% Tween 20, with 5 mM CaCl2 or 5 mM EGTA; room temperature; KD model; conditions: both partners purified
[7] = target: T1, MUC5B C-terminal construct consisting …; assay: MST; pH 7.4; 2.5 nM RED-NHS labelled NT5B, CT5B serially diluted 1:1 (starting concentration 6 μM); 25 mM HEPES, 150 mM NaCl, 0.05% Tween 20, with 5 mM CaCl2 or 5 mM EGTA; room temperature; KD model; conditions: both partners purified

| stoichiometry N [1] | stoichiometry N [2] | stoichiometry N [3] | Kd [4] | Kd [5] | binding response, fold lower than at pH 6 [5] | Kd [6] | Kd [7] | Molecule |
| --- | --- | --- | --- | --- | --- | --- | --- | --- |
| 2 | 2 | 2 |  |  |  |  |  | MUC5B C-terminal construct consisting of D4-B-C-CK (CT5B) (from UniProt Q9HC84 4955-5762) (domain or fragment) |
|  |  |  | ~1 nM | ~3 nM | 5 fold | 3 ± 1.4 nM | 7.4 ± 1.5 nM | MUC5B N-terminal construct consisting of D1-D2-D′-D3 (NT5B) (domain or fragment, RED-NHS (amine reactive) fluorescent dye, in the MST experiments only) QGPVEPSWENAGHTMDGGAPTSSPTRRVSFVPPVTVFPSLSPLNPAHNGRVCSTWGDFHYKTFDGDVFRFPGLCNYVFSEHCRAAYEDFNVQLRRGLVGSRPVVTRVVIKAQGLVLEASNGSVLINGQREELPYSRTGLLVEQSGDYIKVSIRLVLTFLWNGEDSALLELDPKYANQTCGLCGDFNGLPAFNEFYAHNARLTPLQFGNLQKLDGPTEQCPDPLPLPAGNCTDEEGICHRTLLGPAFAECHALVDSTAYLAACAQDLCRCPTCPCATFVEYSRQCAHAGGQPRNWRCPELCPRTCPLNMQHQECGSPCTDTCSNPQRAQLCEDHCVDGCFCPPGTVLDDITHSGCLPLGQCPCTHGGRTYSPGTSFNTTCSSCTCSGGLWQCQDLPCPGTCSVQGGAHISTYDEKLYDLHGDCSYVLSKKCADSSFTVLAELRKCGLTDNENCLKAVTLSLDGGDTAIRVQADGGVFLNSIYTQLPLSAANITLFTPSSFFIVVQTGLGLQLLVQLVPLMQVFVRLDPAHQGQMCGLCGNFNQNQADDFTALSGVVEATGAAFANTWKAQAACANARNSFEDPCSLSVENENYARHWCSRLTDPNSAFSRCHSIINPKPFHSNCMFDTCNCERSEDCLCAALSSYVHACAAKGVQLSDWRDGVCTKYMQNCPKSQRYAYVVDACQPTCRGLSEADVTCSVSFVPVDGCTCPAGTFLNDAGACVPAQECPCYAHGTVLAPGEVVHDEGAVCSCTGGKLSCLGASLQKSTGCAAPMVYLDCSNSSAGTPGAECLRSCHTLDVGCFSTHCVSGCVCPPGLVSDGSGGCIAEEDCPCVHNEATYKPGETIRVDCNTCTCRNRRWECSHRLCLGTCVAYGDGHFITFDGDRYSFEGSCEYILAQDYCGDNTTHGTFRIVTENIPCGTTGTTCSKAIKLFVESYELILQEGTFKAVARGPGGDPPYKIRYMGIFLVIETHGMAVSWDRKTSVFIRLHQDYKGRVCGLCGNFDDNAINDFATRSRSVVGDALEFGNSWKLSPSCPDALAPKDPCTANPFRKSWAQKQCSILHGPTFAACRSQVDSTKYYEACVNDACACDSGGDCECFCTAVAAYAQACHDAGLCVSWRTPDTCPLFCDFYNPHGGCEWHYQPCGAPCLKTCRNPSGHCLVDLPGLEGCYPKCPPSQPFFNEDQMKCVAQCGCYDKDGNYYDVGARVPTAENCQSCNCTPSGIQCA |
